The target of the data set is p53 (UniProt P04637 1-393). The data set is described as follows: EMSA; 100 ng p53, 100 nM probe; EMSA: 100 ng recombinant p53, 100 nM annealed biotin probe; binding buffer, salt, pH and temperature not given (ref 63). Particulars: protein: commercial, chain copies: 4, label: 3'-biotin. A general note: In EMSA bound probe runs differently from free probe, usually more slowly.
p53, sequence (P04637 whole entry): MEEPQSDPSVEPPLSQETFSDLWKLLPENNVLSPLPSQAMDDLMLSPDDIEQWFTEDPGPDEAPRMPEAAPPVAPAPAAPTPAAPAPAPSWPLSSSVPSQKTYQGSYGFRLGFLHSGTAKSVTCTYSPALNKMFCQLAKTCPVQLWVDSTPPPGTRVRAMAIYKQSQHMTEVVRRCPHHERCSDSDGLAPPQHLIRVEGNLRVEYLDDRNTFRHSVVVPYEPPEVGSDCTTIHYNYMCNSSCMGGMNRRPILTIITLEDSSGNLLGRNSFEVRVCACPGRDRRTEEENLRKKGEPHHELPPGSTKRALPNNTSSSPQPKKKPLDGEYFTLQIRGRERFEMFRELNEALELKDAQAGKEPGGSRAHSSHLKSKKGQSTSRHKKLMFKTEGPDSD

B1: hBD3 -1339 mutant probe (dsDNA)
DNA 1: TGACTGTCGACCCATCTACCTGGCCCTAAATTG
DNA 2: CAATTTAGGGCCAGGTAGATGGGTCGACAGTCA
As to B1, the binding result is “no binding”.

B2: hBD3 promoter -1339 p53 probe (dsDNA)
DNA 1: TGACTGTCTGCCCATCTACCTGGCCCTACAT
DNA 2: ATGTAGGGCCAGGTAGATGGGCAGACAGTCA
B2: the binding result is recorded as “binds”.

Values taken from article PMC5053661, “Human papillomavirus oncogenic E6 protein regulates human β-defensin 3 (hBD3) expression via the tumor suppressor protein p53”.
